Measured values: US20050085421A1

Target: GHSR-1a
Assay: 125I-ghrelin saturation binding on GHSR-1a membranes (typical value of membrane stock)

Bmax: 6 fmol/µg
Substance: 125I-ghrelin (peptide)
